Measurements published in US20230331848A1 (BIOSION, published 2023).
Positions count from the first letter of the chain named.

B1: mouse anti-PD-1 monoclonal antibody E1A9C8A7 (antibody, V domains shown)
VH: QVQLQQSGAEVVRPGVSVRISCKGSGYTFSDYVMHWMKQSHGESLEWIGVISTYHIPAVYNQKFKGKATMTVDKSSSTVYLELARLTSEDSAIYYCAREVYGDSYYFDVWGAGTTVTVSS
VL: DVLMTQIPLSLPVSLGDQVSISCRSSQSIVHSNGNTYLEWYLQKPGQSPKLLIYKVSNRFSGVPDRFSGSGSGTDFTLKISRVEAEDLGVYYCFQGSHVPYTFGGGTKLEIK
notes: Hybridoma-derived mouse mAb purified on Protein A; also called Mouse E1A9C8A7
B2: mouse anti-PD-1 monoclonal antibody E1G5D1H1 (antibody, V domains shown)
VH: EVQLVESGGGLVKPGGSLKLSCAASGFTFSDFYMYWVRQTPEKRLEWVATISNSGTQTYYLDSVKGRFTISRDNAKNNLYLQMSSLKSEDTAMYYCARDYYRYDSWYFDVWGAGTTVTVSS
VL: DIVLTQSPASLAVSQGQRATISCRASESVDFYGTSLMQWFQLKPGQPPKLLIYAASNVESGVPARFSGSGSGTNFSLNIHPVEEDDIAMYFCQQSRKVPWTFGGGTNLEIK
notes: Hybridoma-derived mouse mAb; also called EIG5D1H1; E1G5DIH1
B3: mouse anti-PD-1 monoclonal antibody E2G4E10B7 (antibody, V domains shown)
VH: QVQLQQSGAELVRPGVSVKISCKGSGYTFTDYVMHWVRQSHAKSLEWIGVISTHFGDGVYNQKFKGKATMTVDKSSSTAYMELARLTSEDSAIYYCAREVYGDSWYFDVWGAGTTVTVSS
VL: B1 VL with I7T, V19A, I29L, N33D, V83L
notes: Hybridoma-derived mouse mAb; also called Mouse E2G4E10B7

These binders were tested against T1, recombinant human PD-1-his protein (Cat#:10377-H08H, Sino biological Inc.) (human, UniProt Q15116 25-167) (assay: SPR (Biacore T200), antibody captured, PD-1-his in flow, 1:1 fit).
T1 construct: Bought protein used as analyte in the Biacore tests; not shown: his tag
Text: (§1) The purified anti-PD-1 mouse monoclonal antibodies (mAbs) generated in Example 1 were characterized for binding affinities and binding kinetics by Biacore T200 system (GE healthcare, Pittsburgh, Pa., USA).
(§2) Briefly, Goat-Anti-Mouse IgG (Cat#: BR100838, GE healthcare, Mouse Antibody Capture Kit) was covalently linked to a CMS chip (carboxy methyl dextran coated chip, Cat#: BR100530, GE healthcare) via primary amines using a standard amine coupling kit (GE healthcare, Pittsburgh, Pa., USA) provided by Biacore. Un-reacted moieties on the biosensor surface were blocked with ethanolamine. A Protein G chip (Cat#:29-1793-15, GE healthcare) was used for the positive controls affinity determination. The anti-PD-1 antibodies of the disclosure and the two positive controls at the concentration of 2 μg/ml were respectively flowed onto the chip at a flow rate of 10 μl/min. Then, serially diluted recombinant human PD-1-his protein (Cat#:10377-H08H, Sino biological Inc.), cynomolgus PD-1-his protein (Cat#:PD1-05223, Acro biosystems Inc.) and recombinant mouse PD-1-his protein (Cat#:50124-M08H, Sino Biological Inc), 2-fold dilution in HBS-EP⁺ buffer (provided by Biacore) starting at 200 nM, were respecitvely flowed onto the chip at a flow rate of 30 μl/min. The antigen-antibody association kinetics was followed for 2 minutes and the dissociation kinetics was followed for 10 minutes. The association and dissociation curves were fit to a 1:1 Langmuir binding model using Biacore evaluation software.
Work on B1 yielded a Kd of 1.1 nM, a koff of 0.00022 s⁻¹ and a kon of 199000 M⁻¹ s⁻¹.
Work on B2 yielded a Kd of 0.236 nM, a koff of 8.56e-05 s⁻¹ and a kon of 363000 M⁻¹ s⁻¹.
B3 gave a Kd of 0.906 nM, a koff of 0.00022 s⁻¹ and a kon of 243000 M⁻¹ s⁻¹.

These binders were tested against T2, cynomolgus PD-1-his protein (Cat#:PD1-05223, Acro biosystems Inc.) (cynomolgus, UniProt B0LAJ3 25-170) in the same assay as above.
T2 construct: Bought protein used in Biacore and indirect ELISA; also called monkey PD-1; Cyno PD-1
Text: as §1, §2
Work on B1 yielded a Kd of 1.13 nM, a koff of 0.000119 s⁻¹ and a kon of 106000 M⁻¹ s⁻¹.
B2 gave a Kd of 0.125 nM, a koff of 4.32e-05 s⁻¹ and a kon of 345000 M⁻¹ s⁻¹.
B3 showed a Kd of 1.16 nM, a koff of 0.000161 s⁻¹ and a kon of 138000 M⁻¹ s⁻¹.

Each binder was assayed against T3, human PD-1 expressed on GS-J2/PD-1 cells (Genscript) (human, UniProt Q15116 25-288) (assay: cell-based binding FACS on GS-J2/PD-1 cells expressing human PD-1 (MFI); unit from the axis 'Con of mAb, nM.').
T3 construct: whole, on cells; also called cell-surface human PD-1
Protocol: The mouse anti-PD-1 antibodies of the disclosure were also tested for their binding activities to human PD-1s expressed on cell surface by flow cytometry (FACS), using GS-J2/PD-1 cell line (Genscript) expressing cell-surface human PD-1s.
In specific, the 293F-mouse PD-1 cells and GS-J2/PD-1 cells were respectively harvested from cell culture flasks, washed twice and re-suspended in PBS containing 2% v/v Fetal Bovine Serum (FACS buffer). Then, 2×10⁵ cells per well were incubated in 96 well-plates with 100 μl of the anti-PD1 antibodies or controls at various concentrations for 40 minutes on ice. […] Following an incubation of 40 minutes at 4° C. in dark, cells were washed three times and re-suspended in FACS buffer. Fluorescence was measured using a Becton Dickinson FACS Canto II-HTS equipment and plotted against antibody concentrations. Data was analyzed using GraphPad Prism software and EC₅₀ values were reported.
B1 was tested, and the EC50 was 0.37 nM.
B2 gave an EC50 of 0.23 nM.
Work on B3 yielded an EC50 of 0.483 nM.

The binders below were run against T4, in house made human PD-1-Fc protein (human, biotin-labeled (sites not given)) (assay: competitive ELISA: antibody pre-mixed with biotin-labeled human PD-1-Fc, added to coated Pembrolizumab (competitor); unit from the axis 'Con of mAb, nM.').
T4 construct: also called biotin-labeled human PD-1-Fc
Protocol: ELISA plates were washed once with wash buffer (PBST, PBS+0.05% Tween-20) and then blocked with 200 μl/well blocking buffer (5% w/v non-fatty milk in PBST) for 2 hours at 37° C. […] After incubation at 37° C. for 40 minutes, plates were washed using wash buffer, added and incubated with 100 μl/well Peroxidase Streptavidin for 40 minutes at 37° C. Plates were washed again using wash buffer. Finally, TMB was added and the reaction was stopped using 1M H₂SO₄. The absorbance was read on a microplate reader using dual wavelength mode with 450 nm for TMB and 630 nm as the reference wavelength, and the OD (450-630) values were plotted against antibody concentrations. Data was analyzed using Graphpad Prism software and IC₅₀ values were reported.
Binder B1 has an IC50 of 0.0982 nM.
For B2, the IC50 was 0.0629 nM.
B3 gave an IC50 of 0.162 nM.

What follows are binders tested against T4, in house made human PD-1-Fc protein (assay: capture ELISA: antibody captured on anti-mouse IgG F(ab')2 coated plate, biotin-labeled human PD-1-Fc detected with streptavidin-HRP; unit from the axis 'Con of mAb, nM.').
Protocol: Briefly, 96-well micro plates were coated with 100 μl 2 μg/ml AffiniPure Goat Anti-Mouse IgG F(ab′)₂ fragment specific (Cat#:115-005-072, Jackson lmmunoResearch) or Goat-anti-human IgG (Cat#:109-005-097, Jackson ImmunoResearch, for the positive control and negative control) in PBS overnight at 4° C. Plates were washed once with wash buffer (PBST, PBS+0.05% Tween-20) and then blocked with 200 μl/well blocking buffer (5% w/v non-fatty milk in PBST) for 2 hours at 37° C. […] After a final wash, plates were incubated with 100 μl/well TMB (Cat#:TMB-S-002, Innoreagents) at room temperature.
The reaction was stopped 3-10 minutes later with 50 μl/well 1M H₂SO₄, and the absorbance was read on a microplate reader using dual wavelength mode with 450 nm for TMB and 630 nm as the reference wavelength. The OD (450-630) values were plotted against antibody concentrations. Data was analyzed using GraphPad Prism software and EC₅₀ values were reported.
For B1, the EC50 was 0.0554 nM.
Work on B2 yielded an EC50 of 0.0379 nM.
Binder B3 has an EC50 of 0.0647 nM.

Each binder was assayed against T4, in house made human PD-1-Fc protein (assay: cell-based blocking FACS: antibody pre-mixed with biotin-labeled human PD-1-Fc, added to GS-C2/PD-L1 cells expressing human PD-L1 (blocked ligand); unit from the axis 'Con of mAb, nM.').
Protocol: GS-C2/PDL1 cells were harvested from cell culture flasks at the log phase, washed twice and re-suspended in PBS containing 2% v/v Fetal Bovine Serum (FACS buffer). GS-C2/PD-L1 cells, 0.6×10⁵ cells per welt, were incubated in 96 well-plates with 100 the antibody/PD1-Fc mixture for 40 minutes at 4° C. Cells were washed twice with FACS buffer, added with 100 R-Phycoerythrin Streptavidin (1:500 dilution in FACS buffer, Cat#:016-110-084, Jackson Immunoresearch), and incubated for 40 minutes at 4° C. in dark. Cells were washed twice and re-suspended in FACS buffer. Fluorescence was measured using a Becton Dickinson FACS Canto II-HTS equipment. Data was analyzed using Graphpad Prism software and IC₅₀ values were reported.
B1 showed an IC50 of 0.782 nM.
Work on B2 yielded an IC50 of 0.496 nM.
B3 showed an IC50 of 0.484 nM.
